Where a chain is given by its changes, count along the chain named.
Legend:
Experiment in all cases: immunofluorescence (legend of FIG. 4)
[1] = target: T1, human ALK2-R202I on cells (human, UniProt Q04771 21-509)
T1 sequence: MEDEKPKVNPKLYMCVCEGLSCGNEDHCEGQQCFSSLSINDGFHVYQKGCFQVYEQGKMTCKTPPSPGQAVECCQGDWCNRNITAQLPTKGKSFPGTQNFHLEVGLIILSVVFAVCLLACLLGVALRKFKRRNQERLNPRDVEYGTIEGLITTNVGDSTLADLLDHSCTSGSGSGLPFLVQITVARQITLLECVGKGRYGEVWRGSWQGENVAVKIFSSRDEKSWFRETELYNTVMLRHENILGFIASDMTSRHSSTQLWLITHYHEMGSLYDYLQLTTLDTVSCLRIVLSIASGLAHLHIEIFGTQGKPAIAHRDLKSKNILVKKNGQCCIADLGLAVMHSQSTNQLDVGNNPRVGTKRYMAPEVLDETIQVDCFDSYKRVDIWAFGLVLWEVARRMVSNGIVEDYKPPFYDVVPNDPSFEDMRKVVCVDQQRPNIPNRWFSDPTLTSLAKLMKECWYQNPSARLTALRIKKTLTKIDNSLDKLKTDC
Method: (§1) Mouse C2C12 cells were seeded into a 96-well plate (Greiner Bio-One) at 0.5×10³ cells/well, and cultured in 15% FBS-containing DMEM medium overnight under the conditions of 5% CO₂ at 37° C. On the following day, the C2C12 cells were transfected with each of a wild-type human ALK2 cDNA integrated into pcDEF3; pcDEF3/human ALK2-L196P, pcDEF3/human ALK2-P197_F198delinsL, pcDEF3/human ALK2-R202I, pcDEF3/human ALK2-R206H, pcDEF3/human ALK2-Q207E, pcDEF3/human ALK2-R258S, pcDEF3/human ALK2-G325A, pcDEF3/human ALK2-G328E, pcDEF3/human ALK2-G328R, pcDEF3/human ALK2-G328W, pcDEF3/human ALK2-G356D, and pcDEF3/human ALK2-R375P, which are variants identified in FOP; and pcDEF3 as a control, using Lipofectamine 2000 (Invitrogen), and further cultured overnight.
(§2) The C2C12 cells were fixed with 10% neutral formalin (Nacalai Tesque, Japan) for 20 minutes at room temperature, and then blocked with 10% goat normal serum for 30 minutes. After the blocking agent was removed, purified IgG diluted to 10 μg/mL with the blocking agent was added, and the cells were left for 1 hour at room temperature. After the cells were washed with PBS three times, Goat Alexa 594-conjugated anti-rat IgG (Invitrogen) diluted to 1:1000 with the blocking agent was added, and the cells were left for 1 hour at room temperature. After the cells were washed with PBS three times, the cells were fixed with 10% neutral formalin for 15 minutes at room temperature, and nuclear-stained with DAPI (LifeTechnologies). Fluorescent signals were analyzed with a fluorescence microscope BZ-9000 (Keyence).

[2] = target: T2, human ALK2-R206H on cells (human, UniProt Q04771 21-509)
T2 sequence: T1 sequence with I182R, R186H
Method: as §1, §2

[3] = target: T3, human ALK2-Q207E on cells (human, UniProt Q04771 21-509)
T3 sequence: T1 sequence with I182R, Q187E
Method: as §1, §2

[4] = target: T4, human ALK2-G328W on cells (human, UniProt Q04771 21-509)
T4 sequence: T1 sequence with I182R, G308W
Method: as §1, §2

Measured: binding result

B1: rat anti-ALK2 monoclonal antibody A2-15A (antibody, V domains shown)
VH: EVQLVESGGGLVQPGRSLKLSCAASGFTFSHYYMAWVRQAPTKGLEWVASITNSGGSINYRDSVKGRFTISRDNAKSTLYLQMDSLRSEDTATYYCTREGGENYGGYPPFAYWGQGTLVTVSS
VL: DIVLTQSPALAVSLGQRATISCRANQGVSLSRYNLMHWYQQKPGQKPKLLIYRSSNLASGIPARFSGSGSGTDFTLTINPVQADDIATYYCQQSRESPFTFGAGTKLELKR
notes: Rat monoclonal IgG from a hybridoma; also called 15A6
binds: all assays above

B2: rat anti-ALK2 monoclonal antibody A2-11E (antibody, V domains shown)
VH: EVQLVETGGGLVQPGRSLKLSCVASGFTFSNYYMYWIRQAPGKGLEWISSINTDGGSTYYPDSVKGRFAISRDNAENTVYLQMNSLRSEDTATYYCAKSTPNIPLAYWGQGTLVTVSS
VL: DIQMTQSPSLLSASVGDRVTLSCKASQNIYKYLNWFQQKLGEAPKLLIYYSNSLQTGIPSRFSGSGSGTDFTLTISSLQPEDVAIYFCFQYSSGPTFGPGTKLELKR
notes: Rat monoclonal IgG from a hybridoma; also called 11E2
binds: all assays above
